Assay results published in patent KR20220082776A (dated 2022).
Values belong to the binder of their own block, whether it stands above or below them.

Legend:
[1] = target: T1, 재조합 인간 TIGIT-His 단백질 (recombinant human TIGIT-His protein) (human) (UniProt Q495A1); assay: SPR, chimeric antibodies; antigen not given
T1 sequence (looked up): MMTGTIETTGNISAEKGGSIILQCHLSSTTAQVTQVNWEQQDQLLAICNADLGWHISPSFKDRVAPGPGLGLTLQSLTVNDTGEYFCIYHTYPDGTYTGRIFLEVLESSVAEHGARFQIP

[2] = target: T2, 재조합 인간 TIGIT-His 단백질 (recombinant human TIGIT-His protein) (human, UniProt Q495A1 22-141); assay: hybridoma culture medium; 도 1 is flow cytometry on anti-hCD3/28-activated human T cells, the sentence names recombinant human TIGIT-His
T2 construct: All are treated here as one molecule; also called TIGIT-His(Sino); 항원; not shown: His tag
T2 sequence (looked up): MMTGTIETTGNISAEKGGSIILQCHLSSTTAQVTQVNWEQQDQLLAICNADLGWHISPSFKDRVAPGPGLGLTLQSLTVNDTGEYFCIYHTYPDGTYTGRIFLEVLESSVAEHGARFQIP

[3] = target: T3, 인간 TIGIT (human TIGIT on cells) (human, UniProt Q495A1 22-244); assay: flow cytometry on CD4 and CD8 T cells of anti-hCD3/28-activated human PBMC
T3 construct: whole, on cells; also called hTIGIT
T3 sequence (looked up): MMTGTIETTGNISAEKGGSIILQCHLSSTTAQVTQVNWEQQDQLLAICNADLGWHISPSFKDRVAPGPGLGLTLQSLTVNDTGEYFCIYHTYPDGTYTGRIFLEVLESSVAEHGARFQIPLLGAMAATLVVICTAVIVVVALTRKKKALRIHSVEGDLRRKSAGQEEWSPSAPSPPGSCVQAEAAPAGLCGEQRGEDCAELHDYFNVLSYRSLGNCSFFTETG

[4] = target: T2, 재조합 인간 TIGIT-His 단백질 (recombinant human …); assay: SPR; antigen not given
[5] = target: T3, 인간 TIGIT (human TIGIT on cells); assay: flow cytometry on artificial effector T cells expressing TIGIT
[6] = target: T1, 재조합 인간 TIGIT-His 단백질 (recombinant human TIGIT-His protein) (human); assay: SPR, humanized antibodies; antigen not given
[7] = target: T2, 재조합 인간 TIGIT-His 단백질 (recombinant human …); assay: method not named in the sentence (SPR of Example 7); antigen not given
[8] = target: T2, 재조합 인간 TIGIT-His 단백질 (recombinant human …); assay: ELISA, plate coated with recombinant human TIGIT-His, anti-hIgG-HRP detection
[9] = target: T2, 재조합 인간 TIGIT-His 단백질 (recombinant human …); assay: ELISA, plate coated with recombinant human TIGIT-His, as in Example 3-(1)

B6: clone 58E (hybridoma antibody) (antibody, V domains shown)
VH: EVQLQQSGPELVKPGASVKMSCKASGYTFTSYVMHWVKQKPGQGLEWIGYINLNNDGTKYNEKFKGKATLSSDKSSSTAYMELSSLTSEDSAVYYCARWRVYYYAMDYWGQGTSVTVSS
VL: EIVLTQSPAITAASLGQKVTITCSASSSVNYMHWYQQKSGTSPRPWIYEISKLASGVPARFSGSGSGTSYSLTISSMEAEDAAIYYCQLWNYPLITFGAGTKLELK
notes: Mouse hybridoma antibody (culture medium)
- binding result [2]: binds

B8: T21.01 (antibody, V domains shown)
VH: EVQLQQSGPELVKPGASVKMSCKASGYTFTSYVMHWVKQKPGQGLEWIGYINLNNDGTKYNEKFKGKATLSSDKSSSTAYMELSSLTSEDSAVYYCARWRVYYYAMDYWGQGTSVTVSS
VL: EIVLTQSPAITAASLGQKVTITCNASSSVDYVHWYQQKSGTSPRPWIYEISKLASGVPARFSGSGSGTSYSLTISSMEAEDAAIYYCQLWNYPLITFGAGTKLELK
notes: Gene engineered variant of 58E; produced in Expi293F; also called clone T21.01
- binding result [4]: binds

B9: 인간화 후보항체 clone 63F (antibody, V domains shown)
VH: EVQLVESGGGLVQPGGSLRLSCAASGSTFSNYWMNWVRQAPGKGLEWVAEIRLKFNNYATHYVESVIGRFTISRDDSKNSVYLQMNSLKTEDTAVYYCTMVRRNWYFDVWGRGTLVTVSS
VL: EIVLTQSPATLSLSPGERATLSCSASSSVSSSYLYWYQQKPGLAPRLWIYSTSNLASGIPDRFSGSGSGTDYTLTISRLEPEDFAVYYCHQWSSYPYTFGQGTKLEIK
notes: Humanized; also called 인간화 후보항체 63F; humanized 63F
- binding result [5]: binds
- 결합력, fold higher than humanized clone 19D [6]: 13 배

B13: T21.13 (antibody, V domains shown)
VH: QVQLVQSGAEVKKPGASVKVSCKASGYTFTSYVMHWVRQAPGQRLEWIGYINLNNDGTKYNEKFKGRATLTSDKSASTAYMELSSLRSEDTAVYYCARWRVYYYAMDYWGQGTLVTVSS
VL: EIVLTQSPATLSLSPGERATLSCNASSSVDYVHWYQQKPGQAPRPWIYEISKLASGIPARFSGSGSGTDYTLTISSLEPEDFAVYYCQLWNYPLITFGQGTKVEIK
notes: Gene engineered variant of 58E; also called clone T21.13
- binding result [4]: binds

B14: T21.33 (antibody, V domains shown)
VH: QVQLVQSGAEVKKPGASVKVSCKASGYTFTSYVMHWVRQAPGQRLEWIGYINLNNDGTKYNEKFKGRATLTSDKSASTAYMELSSLRSEDTAVYYCARWRVYYYAMDYWGQGTLVTVSS
VL: EIVLTQSPATLSLSPGERATLSCNASSSVDYVHWYQQKPGQAPRPWIYEISKLASGIPARFSGSGSGTSYTLTISSLEPEDFAVYYCQLWNYPLITFGQGTKVEIK
notes: also called clone T21.33
- binding result [7]: binds

B16: 인간화 후보항체 clone 62F (antibody, V domains shown)
VH: QVQLVQSGAEVKKPGASVKVSCKASGFTFTEYTMHWVRQAPGQGLEWIGGFNPNSGGSSYNQKFKGRATLTVDKSISTAYMELSRLRSDDTAVYYCARSSYYRFDLDYWGQGTTVTVSS
VL: DIQMTQSPSSLSASVGDRVTITCKASQDVKTAVAWYQQKPGKAPKLLIYSASFRYTGVPSRFSGSGSGADFTLTISSLQPEDFATYYCQQHYTTPWTFGQGTKVEIK
notes: Humanized; also called 인간화 후보항체 62F; hu62F
- binding result [5]: binds
- 결합력, fold higher than humanized clone 19D [6]: 33 배

B17: 인간화 후보항체 clone 19D (antibody, V domains shown)
VH: QVQLVQSGAEVKKPGASVKVSCKASGYTFSNYVMHWVRQAPGQRLEWIGYINPYNDGTKYNEKFKGRATLTSDRSASTAYMELSSLRSEDTAVYYCARWRVNYYFDYWGQGTLVTVSS
VL: DIQLTQSPSSLSASVGDRVTITCRASSSVNYMHWYQQKPGKAPKAWISVTSNLASGVPSRFSGSGSGTDYTLTISSLQPEDFATYYCQQWSSNPPWTFGQGTKVEIK
notes: Humanized; also called 인간화 후보항체 19D; humanized 19D
- binding result [5]: binds
- binding result [9]: binds

Other lines, results leading:

- 결합력, fold higher than the control Oncomed-313M32 antibody [1]: 6 배
B1: chimeric-후보항체 clone 63F (antibody, V domains shown)
VH: EVQLEEFGGGLVQPGGSMKLSCVASGSTFSNYWMNWVRQSPEKGLEWVAEIRLKFNNYATHYVESVIGRFTISRDDSKSSVYLQMNNLRAEDTGIYYCTMVRRNWYFDVWGAGTTVTVSS
VL: QIVLTQSPAIMSAFPGEKVTLTCSASSSVSSSYLYWYQQKPRSSPKLWIYSTSNLASGVPARFSGSGSGTSYSLTISSMEAEDAASYFCHQWSSYPYTFGGGTKLEIK

- binding result [2]: binds
B2: clone 75G (hybridoma antibody) (antibody, V domains shown)
VH: EVNLEESGGGLVQPGGSMKLSCVASGVTFSNYWMNWVRQSPEKGLEWVAEIRLKFNDYATHYVESVKGRFTISRDDSESSVYLQMNNLRAEDTGIYYCTMVRRNWYFDVWGAGTTVTVSS
VL: QIVLTQSPAIMSASPGEKVTLTCSASSSVSSGYLYWYQKKPGSSPKLWIYSTSDLASGVPARFSGSGSGTFYSLTISNMEAEDAASYFCHQWSSYPYTFGGGTKLEIK
notes: as for B6

- 결합력, fold higher than the control Oncomed-313M32 antibody [1]: 30 배
- binding result [3]: binds
B3: chimeric-후보항체 clone 75G (antibody, V domains shown)
VH: EVNLEESGGGLVQPGGSMKLSCVASGVTFSNYWMNWVRQSPEKGLEWVAEIRLKFNDYATHYVESVKGRFTISRDDSESSVYLQMNNLRAEDTGIYYCTMVRRNWYFDVWGAGTTVTVSS
VL: QIVLTQSPAIMSASPGEKVTLTCSASSSVSSGYLYWYQKKPGSSPKLWIYSTSDLASGVPARFSGSGSGTFYSLTISNMEAEDAASYFCHQWSSYPYTFGGGTKLEIK
notes: also called chimeric 75G

- 결합력, fold higher than the control Oncomed-313M32 antibody [1]: 13 배
- binding result [3]: binds
B4: chimeric-후보항체 clone 58E (antibody, V domains shown)
VH: EVQLQQSGPELVKPGASVKMSCKASGYTFTSYVMHWVKQKPGQGLEWIGYINLNNDGTKYNEKFKGKATLSSDKSSSTAYMELSSLTSEDSAVYYCARWRVYYYAMDYWGQGTSVTVSS
VL: EIVLTQSPAITAASLGQKVTITCSASSSVNYMHWYQQKSGTSPRPWIYEISKLASGVPARFSGSGSGTSYSLTISSMEAEDAAIYYCQLWNYPLITFGAGTKLELK
notes: also called chimeric 58E; 후보항체 58E

- binding result [4]: binds
B5: T21.11 (antibody, V domains shown)
VH: QVQLVQSGAEVKKPGASVKVSCKASGYTFTSYVMHWVRQAPGQRLEWIGYINLNNDGTKYNEKFKGRATLTSDKSASTAYMELSSLRSEDTAVYYCARWRVYYYAMDYWGQGTLVTVSS
VL: EIVLTQSPAITAASLGQKVTITCNASSSVDYVHWYQQKSGTSPRPWIYEISKLASGVPARFSGSGSGTSYSLTISSMEAEDAAIYYCQLWNYPLITFGAGTKLELK
notes: Gene engineered variant of 58E: humanized 58E heavy chain, light chain T21L01; also called clone T21.11

- binding result [4]: binds
B7: T21.09 (antibody, V domains shown)
VH: EVQLQQSGPELVKPGASVKMSCKASGYTFTSYVMHWVKQKPGQGLEWIGYINLNNDGTKYNEKFKGKATLSSDKSSSTAYMELSSLTSEDSAVYYCARWRVYYYAMDYWGQGTSVTVSS
VL: EIVLTQSPATLSLSPGERATLSCNASSSVDYVHWYQQKPGQAPRPWIYEISKLASGIPARFSGSGSGTDYTLTISSLEPEDFAVYYCQLWNYPLITFGQGTKVEIK
notes: Gene engineered variant of 58E; also called clone T21.09

- binding result [5]: binds
- 결합력, fold higher than humanized clone 19D [6]: 36 배
B10: 인간화 후보항체 clone 75G (antibody, V domains shown)
VH: EVQLVESGGGLVQPGGSLRLSCAASGVTFSNYWMNWVRQAPGKGLEWVAEIRLKFNDYATHYVESVKGRFTISRDDSKNSVYLQMNSLKTEDTAVYYCTMVRRNWYFDVWGRGTLVTVSS
VL: EIVLTQSPATLSLSPGERATLSCSASSSVSSGYLYWYQQKPGLAPRLWIYSTSDLASGIPDRFSGSGSGTDYTLTISRLEPEDFAVYYCHQWSSYPYTFGQGTKLEIK
notes: Humanized; also called 인간화 후보항체 75G; humanized 75G

- 결합력, fold higher than the control Oncomed-313M32 antibody [1]: 30 배
- binding result [3]: binds
B11: chimeric-후보항체 clone 62F (antibody, V domains shown)
VH: EVQLQQSGPELVKPGASVKISCKTSGFTFTEYTMHWVKQSHGKSLEWIGGFNPNSGGSSYNQKFKGKATLTVDKSSSTAFMELRSLTSEDSAAYYCARSSYYRFDLDYWGQGTTLTVSS
VL: DIVMTQSHKFMSTSVGDRVSITCKASQDVKTAVAWYQQKPGQSPQLLIYSASFRYTGVPDRFTGSGSGADFTFTISSVQAEDLAAYYCQQHYTTPWTFGGGTKLEIK
notes: also called chimeric 62F

- binding result [2]: binds
B12: clone 62F (hybridoma antibody) (antibody, V domains shown)
VH: EVQLQQSGPELVKPGASVKISCKTSGFTFTEYTMHWVKQSHGKSLEWIGGFNPNSGGSSYNQKFKGKATLTVDKSSSTAFMELRSLTSEDSAAYYCARSSYYRFDLDYWGQGTTLTVSS
VL: DIVMTQSHKFMSTSVGDRVSITCKASQDVKTAVAWYQQKPGQSPQLLIYSASFRYTGVPDRFTGSGSGADFTFTISSVQAEDLAAYYCQQHYTTPWTFGGGTKLEIK
notes: Mouse hybridoma antibody

- binding result [8]: binds
B15: chimeric-후보항체 clone 19D (antibody, V domains shown)
VH: EVQLQQSGPELVKPGASVKMSCKASGYTFSNYVMHWVKQKPGQGLEWIGYINPYNDGTKYNEKFKGKATLTSDRSSSTAYMELSSLTSEDSAVYYCARWRVNYYFDYWGQGTTLTVSS
VL: QIVLSQSPAILSASPGEKVTMTCRASSSVNYMHWYQQKPGSSPKAWISVTSNLASGVPARFSGSGSGTSYSLTISRVEAEDAATYYCQQWSSNPPWTFGGGTKLEIK
notes: Produced in Expi293; also called chimeric 19D
